Among the data in the supplement of paper PMC10567573 are protein stability index values, retold here.

Sequences and labels used below:
B1: KRT33B (parent)
chain: YQSYFKTIEELQQKILCSKSENAR
B2: TRAF3IP2 (parent)
chain: YGHDYPRAAYQQVIQPALPGQPLP
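Also: lentivirally expressed fusions sorted by FACS into six bins by GFP to DsRed ratio, PSI derived from sequencing read proportions per bin multiplied by bin number.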

In the first data set the parent is B1. The experiment in a line: protein stability index of a GFP-peptide fusion (GPS, HEK-293T) (PSI 1-6); higher = more stable. Particulars: c terminus: a fixed tail appended.
For YQSQFKTIEELQQKILCSKSENAR [Y4Q], the protein stability index is 1.58.

As to YQSPFKTIEELQQKILCSKSENAR [Y4P], the protein stability index is 1.73.

Take YQSGFKTIEELQQKILCSKSENAR [Y4G]: the protein stability index came to 2.08.

Turning to YQSRFKTIEELQQKILCSKSENAR [Y4R], the protein stability index stood at 2.25.

On to YQSMFKTIEELQQKILCSKSENAR [Y4M], for which the protein stability index was determined as 2.11.

Turning to YQSNFKTIEELQQKILCSKSENAR [Y4N], the protein stability index came to 1.85.

YQSFFKTIEELQQKILCSKSENAR [Y4F]: the protein stability index amounted to 1.85.

For the variant YQSLFKTIEELQQKILCSKSENAR [Y4L], the protein stability index was 1.92.

On to YQSWFKTIEELQQKILCSKSENAR [Y4W], for which the protein stability index stood at 2.97.

Take YQSIFKTIEELQQKILCSKSENAR [Y4I]: the protein stability index came out at 1.96.

YQSVFKTIEELQQKILCSKSENAR [Y4V]: the protein stability index amounted to 2.19.

YQSDFKTIEELQQKILCSKSENAR [Y4D]: the protein stability index is 2.34.

In the case of YQSHFKTIEELQQKILCSKSENAR [Y4H], the protein stability index worked out at 1.81.

Turning to YQSTFKTIEELQQKILCSKSENAR [Y4T], the protein stability index amounted to 1.74.

YQSSFKTIEELQQKILCSKSENAR [Y4S]: the protein stability index is 1.54.

In the case of YQSEFKTIEELQQKILCSKSENAR [Y4E], the protein stability index was found to be 1.88.

Regarding YQSAFKTIEELQQKILCSKSENAR [Y4A], the protein stability index is 2.1.

Regarding YQSKFKTIEELQQKILCSKSENAR [Y4K], the protein stability index worked out at 1.5.

As for YQSCFKTIEELQQKILCSKSENAR [Y4C], the protein stability index is 2.01.

With YQAYFKTIEELQQKILCSKSENAR [S3A], the protein stability index was found to be 2.87.

For YQVYFKTIEELQQKILCSKSENAR [S3V], the protein stability index was found to be 1.6.

For YQQYFKTIEELQQKILCSKSENAR [S3Q], the protein stability index was determined as 2.38.

Take YQFYFKTIEELQQKILCSKSENAR [S3F]: the protein stability index was 1.46.

For YQIYFKTIEELQQKILCSKSENAR [S3I], the protein stability index is 1.67.

Turning to YQMYFKTIEELQQKILCSKSENAR [S3M], the protein stability index amounted to 1.78.

As to YQWYFKTIEELQQKILCSKSENAR [S3W], the protein stability index worked out at 1.79.

YQDYFKTIEELQQKILCSKSENAR [S3D]: the protein stability index was found to be 2.18.

On to YQYYFKTIEELQQKILCSKSENAR [S3Y], for which the protein stability index stood at 2.54.

As for YQKYFKTIEELQQKILCSKSENAR [S3K], the protein stability index was 1.98.

Regarding YQEYFKTIEELQQKILCSKSENAR [S3E], the protein stability index turned out to be 2.42.

As to YQGYFKTIEELQQKILCSKSENAR [S3G], the protein stability index was found to be 1.33.

For the variant YQPYFKTIEELQQKILCSKSENAR [S3P], the protein stability index is 2.41.

In the case of YQHYFKTIEELQQKILCSKSENAR [S3H], the protein stability index was found to be 1.59.

As to YQCYFKTIEELQQKILCSKSENAR [S3C], the protein stability index was 2.11.

With YQTYFKTIEELQQKILCSKSENAR [S3T], the protein stability index was 1.9.

Take YQLYFKTIEELQQKILCSKSENAR [S3L]: the protein stability index is 1.96.

For YQNYFKTIEELQQKILCSKSENAR [S3N], the protein stability index was determined as 1.79.

YQRYFKTIEELQQKILCSKSENAR [S3R]: the protein stability index was 1.25.

In the case of YLSYFKTIEELQQKILCSKSENAR [Q2L], the protein stability index amounted to 2.46.

For YYSYFKTIEELQQKILCSKSENAR [Q2Y], the protein stability index was determined as 2.16.

For the variant YRSYFKTIEELQQKILCSKSENAR [Q2R], the protein stability index came out at 2.63.

Consider YASYFKTIEELQQKILCSKSENAR [Q2A], for which the protein stability index was determined as 2.54.

As for YMSYFKTIEELQQKILCSKSENAR [Q2M], the protein stability index was determined as 2.65.

In the case of YISYFKTIEELQQKILCSKSENAR [Q2I], the protein stability index amounted to 2.63.

In the case of YNSYFKTIEELQQKILCSKSENAR [Q2N], the protein stability index stood at 2.16.

Turning to YPSYFKTIEELQQKILCSKSENAR [Q2P], the protein stability index amounted to 2.77.

With YTSYFKTIEELQQKILCSKSENAR [Q2T], the protein stability index was 1.76.

Take YESYFKTIEELQQKILCSKSENAR [Q2E]: the protein stability index stood at 3.37.

YHSYFKTIEELQQKILCSKSENAR [Q2H]: the protein stability index is 2.01.

Consider YCSYFKTIEELQQKILCSKSENAR [Q2C], for which the protein stability index came to 1.52.

With YSSYFKTIEELQQKILCSKSENAR [Q2S], the protein stability index was 2.22.

Regarding YWSYFKTIEELQQKILCSKSENAR [Q2W], the protein stability index was found to be 2.15.

For YVSYFKTIEELQQKILCSKSENAR [Q2V], the protein stability index was found to be 2.2.

Consider YFSYFKTIEELQQKILCSKSENAR [Q2F], for which the protein stability index stood at 2.5.

As to YDSYFKTIEELQQKILCSKSENAR [Q2D], the protein stability index came out at 2.98.

As to YGSYFKTIEELQQKILCSKSENAR [Q2G], the protein stability index is 2.14.

Turning to YKSYFKTIEELQQKILCSKSENAR [Q2K], the protein stability index was found to be 3.17.

As for YQSYDKTIEELQQKILCSKSENAR [F5D], the protein stability index was 3.8.

Turning to YQSYEKTIEELQQKILCSKSENAR [F5E], the protein stability index was 3.79.

As to YQSYAKTIEELQQKILCSKSENAR [F5A], the protein stability index came out at 2.37.

Consider YQSYCKTIEELQQKILCSKSENAR [F5C], for which the protein stability index came to 2.16.

For FQSYFKTIEELQQKILCSKSENAR [Y1F], the protein stability index was 1.93.

For the variant IQSYFKTIEELQQKILCSKSENAR [Y1I], the protein stability index turned out to be 2.2.

With DQSYFKTIEELQQKILCSKSENAR [Y1D], the protein stability index was 4.28.

With EQSYFKTIEELQQKILCSKSENAR [Y1E], the protein stability index turned out to be 3.49.

As to KQSYFKTIEELQQKILCSKSENAR [Y1K], the protein stability index was 2.88.

TQSYFKTIEELQQKILCSKSENAR [Y1T]: the protein stability index came out at 3.28.

Turning to NQSYFKTIEELQQKILCSKSENAR [Y1N], the protein stability index stood at 3.72.

On to LQSYFKTIEELQQKILCSKSENAR [Y1L], for which the protein stability index came out at 1.89.

For the variant HQSYFKTIEELQQKILCSKSENAR [Y1H], the protein stability index came out at 3.04.

On to WQSYFKTIEELQQKILCSKSENAR [Y1W], for which the protein stability index is 2.98.

VQSYFKTIEELQQKILCSKSENAR [Y1V]: the protein stability index turned out to be 2.68.

Regarding AQSYFKTIEELQQKILCSKSENAR [Y1A], the protein stability index is 3.35.

Consider PQSYFKTIEELQQKILCSKSENAR [Y1P], for which the protein stability index is 3.84.

Regarding QQSYFKTIEELQQKILCSKSENAR [Y1Q], the protein stability index is 3.32.

Regarding MQSYFKTIEELQQKILCSKSENAR [Y1M], the protein stability index worked out at 3.08.

In the case of GQSYFKTIEELQQKILCSKSENAR [Y1G], the protein stability index amounted to 3.08.

For RQSYFKTIEELQQKILCSKSENAR [Y1R], the protein stability index came out at 3.15.

On to SQSYFKTIEELQQKILCSKSENAR [Y1S], for which the protein stability index worked out at 3.62.

As for CQSYFKTIEELQQKILCSKSENAR [Y1C], the protein stability index was found to be 2.69.

Variants of B2 are the subject of a further data set. Described as above. Conditions: c terminus: a fixed tail appended.
Turning to YGHDYPRAAYQQVIQPALPGQPLT [P24T], the protein stability index came to 2.59.

In the case of YGHDYPRAAYQQVIQPALPGQPLV [P24V], the protein stability index amounted to 2.09.

Turning to YGHDYPRAAYQQVIQPALPGQPLM [P24M], the protein stability index came out at 2.07.

With YGHDYPRAAYQQVIQPALPGQPLH [P24H], the protein stability index was found to be 1.83.

Consider YGHDYPRAAYQQVIQPALPGQPLQ [P24Q], for which the protein stability index is 1.76.

On to YGHDYPRAAYQQVIQPALPGQPLS [P24S], for which the protein stability index came out at 1.43.

On to YGHDYPRAAYQQVIQPALPGQPLR [P24R], for which the protein stability index is 1.89.

For the variant YGHDYPRAAYQQVIQPALPGQPLL [P24L], the protein stability index worked out at 2.84.

Take YGHDYPRAAYQQVIQPALPGQPLG [P24G]: the protein stability index was 2.12.

On to YGHDYPRAAYQQVIQPALPGQPLN [P24N], for which the protein stability index came out at 2.14.

Consider YGHDYPRAAYQQVIQPALPGQPLI [P24I], for which the protein stability index is 1.78.

With YGHDYPRAAYQQVIQPALPGQPLK [P24K], the protein stability index worked out at 2.47.

Consider YGHDYPRAAYQQVIQPALPGQPLY [P24Y], for which the protein stability index is 1.6.

For the variant YGHDYPRAAYQQVIQPALPGQPLW [P24W], the protein stability index came out at 2.3.
